Laboratory results: patent US20150184142

Experiments:
Compound 7 = test system: T1, Compound 7
T1 sequence: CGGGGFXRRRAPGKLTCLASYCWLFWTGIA

Q: How did the “cleavage by 1.4 nM thrombin at 37 C, HPLC” value (Compound 5) turn out when thrombin was run?
A: Compound 1 was a better substrate for thrombin than Compounds 4 and 5

Q: And the “cleavage by 1.4 nM thrombin in PBS at 37 C, HPLC” value (Compound 7)?
A: Approximately 90% of Compound 7 was cleaved after 30 minutes

Q: And the “cleavage by 1.4 nM thrombin at 37 C, HPLC” value (Compound 4)?
A: Compound 1 was a better substrate for thrombin than Compounds 4 and 5

Q: What about the “cleavage by 1.4 nM thrombin at 37 C, HPLC” value (Compound 1) of the same substance?
A: 30% of Compound 1 was quickly cleaved and released

Q: What about the “cleavage rate with 14 nM thrombin, HPLC, against Compound 2” value (Compound 1) of the same substance?
A: at least 10-fold increase in cleavage rate compared to that of Compound 2
